Measurements published in article PMC8944172 (Antiviral Research, 2022).

Biological target: His-tagged RBD of SARS-CoV-2 (SARS-CoV-2, UniProt P0DTC2)
Assay: SPR

Binder | binding result
REG10987 (antibody, V domains shown) VH: QVQLVESGGGVVQPGRSLRLSCAASGFTFSNYAMYWVRQAPGKGLEWVAVISYDGSNKYYADSVKGRFTISRDNSKNTLYLQMNSLRTEDTAVYYCASGSDYGDYLLVYWGQGTLVTVSS VL: QSALTQPASVSGSPGQSITISCTGTSSDVGGYNYVSWYQQHPGKAPKLMIYDVSKRPSGVSNRFSGSKSGNTASLTISGLQSEDEADYYCNSLTSISTWVFGGGTKLTVL | binds
REG10933 (antibody, V domains shown) VH: QVQLVESGGGLVKPGGSLRLSCAASGFTFSDYYMSWIRQAPGKGLEWVSYITYSGSTIYYADSVKGRFTISRDNAKSSLYLQMNSLRAEDTAVYYCARDRGTTMVPFDYWGQGTLVTVSS VL: DIQMTQSPSSLSASVGDRVTITCQASQDITNYLNWYQQKPGKAPKLLIYAASNLETGVPSRFSGSGSGTDFTFTISGLQPEDIATYYCQQYDNLPLTFGGGTKVEIK | binds
